Target: T1, KRS WT-myc (C-terminus myc tagged KRS wild type) (human, UniProt Q15046 1-597)
T1 construct: Overexpressed in HCT116 cells and tested in lysate; The N-terminus may be cleaved in the cells under starvation; also called KRS-myc
Assay: anti-myc immunoprecipitation from starved cells, western blot for syntenin-1 (FIG. 3d)
Method: FIG. 3d illustrates results investigating the interaction between KRS and syntenin-1 using D12A mutant. C-terminus myc tagged KRS WT and D12A mutant were transfected and overexpressed in cells, and after 24 hr, the transfectants were incubated in serum starvation media for 1 hr, followed by precipitation using anti-myc antibody, and then KRS-bound syntenin-1 was monitored by western blot (mock: control with empty vector introduced into cells).
The cells were lysed with 50 mM Tris-HCl (pH 7.4) buffer containing 150 mM NaCl, 10 mM NaF, 12 mM beta-glycerophosphate, 1 mM EDTA, 1% NP-40, 10% glycerol, and protease inhibiting agent. Then, the supernatant was dissolved in SDS sample buffer, followed by separation using SDS-PAGE. For immunoblotting of endogenous KRS, anti-KRS antibody was used. Antibodies against Hsp90, syntenin-1, GFP, myc, caspase-3, -6, -8, -9, while syntenin-1 were purchased from Santa Cruz, and antibodies against alix were purchased from Cell Signaling. The anti-KRS antibody was manufactured by ordinary procedures in which KRS protein (Genbank Accession No. NP_005539.1) represented by SEQ ID NO: 2 was injected into New Zealand white rabbits to induce immune response and their antibodies were obtained. […]

T1 sequence (Q15046 whole entry): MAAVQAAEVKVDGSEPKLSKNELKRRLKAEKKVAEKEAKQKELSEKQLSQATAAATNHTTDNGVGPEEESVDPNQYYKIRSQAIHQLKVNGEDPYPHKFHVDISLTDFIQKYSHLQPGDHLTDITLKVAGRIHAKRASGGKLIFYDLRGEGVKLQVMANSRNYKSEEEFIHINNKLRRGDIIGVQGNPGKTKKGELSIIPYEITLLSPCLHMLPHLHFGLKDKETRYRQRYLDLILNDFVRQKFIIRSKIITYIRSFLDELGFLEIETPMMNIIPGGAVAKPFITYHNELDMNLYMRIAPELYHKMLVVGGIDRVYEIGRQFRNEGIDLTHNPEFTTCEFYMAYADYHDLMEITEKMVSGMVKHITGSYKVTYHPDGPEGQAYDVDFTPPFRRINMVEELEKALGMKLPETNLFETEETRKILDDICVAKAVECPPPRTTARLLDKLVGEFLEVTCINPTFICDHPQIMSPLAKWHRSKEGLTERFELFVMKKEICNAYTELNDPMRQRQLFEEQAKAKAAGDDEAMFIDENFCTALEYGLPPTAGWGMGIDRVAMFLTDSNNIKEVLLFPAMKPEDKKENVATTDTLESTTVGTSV

B1: syntenin-1, endogenous in HCT116 cells (other)
chain: SLYPSLEDLKVDKVIQAQTAFSANPANPAILSEASAPIPHDGNLYPRLYPELSQYMGLSLNEEEIRANVAVVSGAPLQGQLVARPSSINYMVAPVTGNDVGIRRAEIKQGIREVILCKDQDGKIGLRLKSIDNGIFVQLVQANSPASLVGLRFGDQVLQINGENCAGWSSDKAHKVLKQAFGEKITMTIRDRPFERTITMHKDSTGHVGFIFKNGKITSIVKDSSAARNGLLTEHNICEINGQNVIGLKDSQIADILSTSGTVVTITIMPAFIFEHIIKRMAPSIMKSLMDHTIPEV
B1: binds.

— patent US20170073659A1 (MEDICINAL BIOCONVERGENCE RESEARCH CENTER, published 2017)
